Data from IntAct's records for PubMed 20840750.

B1: Cryptochrome-2 (Mus musculus), Q9R194 (parent)
chain: MAAAAVVAATVPAQSMGADGASSVHWFRKGLRLHDNPALLAAVRGARCVRCVYILDPWFAASSSVGINRWRFLLQSLEDLDTSLRKLNSRLFVVRGQPADVFPRLFKEWGVTRLTFEYDSEPFGKERDAAIMKMAKEAGVEVVTENSHTLYDLDRIIELNGQKPPLTYKRFQALISRMELPKKPAVAVSSQQMESCRAEIQENHDDTYGVPSLEELGFPTEGLGPAVWQGGETEALARLDKHLERKAWVANYERPRMNANSLLASPTGLSPYLRFGCLSCRLFYYRLWDLYKKVKRNSTPPLSLFGQLLWREFFYTAATNNPRFDRMEGNPICIQIPWDRNPEALAKWAEGKTGFPWIDAIMTQLRQEGWIHHLARHAVACFLTRGDLWVSWESGVRVFDELLLDADFSVNAGSWMWLSCSAFFQQFFHCYCPVGFGRRTDPSGDYIRRYLPKLKGFPSRYIYEPWNAPESVQKAAKCIIGVDYPRPIVNHAETSRLNIERMKQIYQQLSRYRGLCLLASVPSCVEDLSHPVAEPGSSQAGSISNTGPRALSSGPASPKRKLEAAEEPPGEELTKRARVTEMPTQEPASKDS

Variants of: B1
Details: with per2_mouse Per2, O54943
Chain of per2_mouse Per2, O54943 (O54943 whole entry): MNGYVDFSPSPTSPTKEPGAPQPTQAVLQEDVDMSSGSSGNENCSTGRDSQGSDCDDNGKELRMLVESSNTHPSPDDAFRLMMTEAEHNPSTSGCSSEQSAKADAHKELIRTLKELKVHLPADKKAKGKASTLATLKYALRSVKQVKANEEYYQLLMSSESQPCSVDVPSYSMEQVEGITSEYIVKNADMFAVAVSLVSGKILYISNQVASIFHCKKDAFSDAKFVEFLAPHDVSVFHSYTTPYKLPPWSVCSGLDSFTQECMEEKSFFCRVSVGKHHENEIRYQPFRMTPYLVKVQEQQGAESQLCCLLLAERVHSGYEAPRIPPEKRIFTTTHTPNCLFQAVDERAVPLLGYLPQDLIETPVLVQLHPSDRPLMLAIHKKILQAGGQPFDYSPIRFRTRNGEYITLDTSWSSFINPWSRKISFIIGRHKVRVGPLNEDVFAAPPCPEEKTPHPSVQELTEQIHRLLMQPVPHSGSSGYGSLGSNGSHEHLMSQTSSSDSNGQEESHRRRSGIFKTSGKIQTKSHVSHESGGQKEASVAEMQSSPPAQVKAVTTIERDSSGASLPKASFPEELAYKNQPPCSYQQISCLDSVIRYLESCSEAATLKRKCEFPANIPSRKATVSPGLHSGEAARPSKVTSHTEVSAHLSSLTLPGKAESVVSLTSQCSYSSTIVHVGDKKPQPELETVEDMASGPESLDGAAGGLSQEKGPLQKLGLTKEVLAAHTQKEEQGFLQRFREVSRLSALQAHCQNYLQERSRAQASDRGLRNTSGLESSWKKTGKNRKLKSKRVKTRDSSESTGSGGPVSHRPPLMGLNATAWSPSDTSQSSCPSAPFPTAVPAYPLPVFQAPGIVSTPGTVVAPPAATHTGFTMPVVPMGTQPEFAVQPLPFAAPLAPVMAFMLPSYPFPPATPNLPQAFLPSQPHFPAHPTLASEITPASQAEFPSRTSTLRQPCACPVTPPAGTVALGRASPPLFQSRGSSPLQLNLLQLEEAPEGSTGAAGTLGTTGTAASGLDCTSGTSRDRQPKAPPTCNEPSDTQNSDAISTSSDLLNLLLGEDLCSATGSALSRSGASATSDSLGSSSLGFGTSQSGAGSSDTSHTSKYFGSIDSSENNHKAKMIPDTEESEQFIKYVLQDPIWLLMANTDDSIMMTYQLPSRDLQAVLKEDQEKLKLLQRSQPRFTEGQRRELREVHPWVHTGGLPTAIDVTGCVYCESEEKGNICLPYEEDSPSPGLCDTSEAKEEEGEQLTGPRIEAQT

| Variant | effect of a mutation on the interaction |
| --- | --- |
| MAAAAVVAATVPAQSMGADGASSVHWFRKGLRLHDNPALLAAVRGARCVRCVYILDPWFAASSSVGINRWRFLLQSLEDLDTSLRKLNSRLFVVRGQPADVFPRLFKEWGVTRLTFEYDSEPFGKERDAAIMKMAKEAGVEVVTENSHTLYDLDRIIELNGQKPPLTYKRFQALISRMELPKKPAVAVSSQQMESCRAEIQENHDDTYGVPSLEELGFPTEGLGPAVWQGGETEALARLDKHLERKAWVANYERPRMNANSLLASPTGLSPYLRFGCLSCRLFYYRLWDLYKKVKRNSTPPLSLFGQLLWREFFYTAATNNPRFDRMEGNPICIQIPWDRNPEALAKWAEGKTGFPWIDAIMTQLRQEGWIHHLARHAVACFLTRGDLWVSWESGVRVFDELLLDADFSVNAGSWMWLSCSAFFQQFFHCYCPVGFGRRTDPSGDYIRRYLPKLKGFPSRYIYEPWNAPESVQKAAKCIIGVDYPRPIVNHAETSRPNTEQMKQTYQQPSRYRGLCLLASVPSCVEDLSHPVAEPGSSQAGSISNTGPRALSSGPASPKRKLEAAEEPPGEELTKRARVTEMPTQEPASKDS [L497P;I499T;R501Q;I505T;L509P] | decreasing interaction |
| MAAAAVVAATVPAQSMGADGASSVHWFRKGLRLHDNPALLAAVRGARCVRCVYILDPWFAASSSVGINRWRFLLQSLEDLDTSLRKLNSRLFVVRGQPADVFPRLFKEWGVTRLTFEYDSEPFGKERDAAIMKMAKEAGVEVVTENSHTLYDLDRIIELNGQKPPLTYKRFQALISRMELPKKPAVAVSSQQMESCRAEIQENHDDTYGVPSLEELGFPTEGLGPAVWQGGETEALARLDKHLERKAWVANYERPRMNANSLLASPTGLSPYLRFGCLSCRLFYYRLWDLYKKVKRNSTPPLSLFGQLLWREFFYTAATNNPRFDRMEGNPICIQIPWDRNPEALAKWAEGKTGFPWIDAIMTQLRQEGWIHHLARHAVACFLTRGDLWVSWESGVRVFDELLLDADFSVNAGSWMWLSCSAFFQQFFHCYCPVGFGRRTDPSGDYIRRYLPKLKGFPSRYIYEPWNAPESVQKAAKCIIGVDYPRPIVNHAETSRLNTEQMKQIYQQLSRYRGLCLLASVPSCVEDLSHPVAEPGSSQAGSISNTGPRALSSGPASPKRKLEAAEEPPGEELTKRARVTEMPTQEPASKDS [I499T;R501Q] | decreasing interaction |
| MAAAAVVAATVPAQSMGADGASSVHWFRKGLRLHDNPALLAAVRGARCVRCVYILDPWFAASSSVGINRWRFLLQSLEDLDTSLRKLNSRLFVVRGQPADVFPRLFKEWGVTRLTFEYDSEPFGKERDAAIMKMAKEAGVEVVTENSHTLYDLDRIIELNGQKPPLTYKRFQALISRMELPKKPAVAVSSQQMESCRAEIQENHDDTYGVPSLEELGFPTEGLGPAVWQGGETEALARLDKHLERKAWVANYERPRMNANSLLASPTGLSPYLRFGCLSCRLFYYRLWDLYKKVKRNSTPPLSLFGQLLWREFFYTAATNNPRFDRMEGNPICIQIPWDRNPEALAKWAEGKTGFPWIDAIMTQLRQEGWIHHLARHAVACFLTRGDLWVSWESGVRVFDELLLDADFSVNAGSWMWLSCSAFFQQFFHCYCPVGFGRRTDPSGDYIRRYLPKLKGFPSRYIYEPWNAPESVQKAAKCIIGVDYPRPIVNHAETSRLNTEQMKQTYQQPSRYRGLCLLASVPSCVEDLSHPVAEPGSSQAGSISNTGPRALSSGPASPKRKLEAAEEPPGEELTKRARVTEMPTQEPASKDS [I499T;R501Q;I505T;L509P] | decreasing interaction |
| MAAAAVVAATVPAQSMGADGASSVHWFRKGLRLHDNPALLAAVRGARCVRCVYILDPWFAASSSVGINRWRFLLQSLEDLDTSLRKLNSRLFVVRGQPADVFPRLFKEWGVTRLTFEYDSEPFGKERDAAIMKMAKEAGVEVVTENSHTLYDLDRIIELNGQKPPLTYKRFQALISRMELPKKPAVAVSSQQMESCRAEIQENHDDTYGVPSLEELGFPTEGLGPAVWQGGETEALARLDKHLERKAWVANYERPRMNANSLLASPTGLSPYLRFGCLSCRLFYYRLWDLYKKVKRNSTPPLSLFGQLLWREFFYTAATNNPRFDRMEGNPICIQIPWDRNPEALAKWAEGKTGFPWIDAIMTQLRQEGWIHHLARHAVACFLTRGDLWVSWESGVRVFDELLLDADFSVNAGSWMWLSCSAFFQQFFHCYCPVGFGRRTDPSGDYIRRYLPKLKGFPSRYIYEPWNAPESVQKAAKCIIGVDYPRPIVNHAETSRLNTERMRQTYQQPSRYRGLCLLASVPSCVEDLSHPVAEPGSSQAGSISNTGPRALSSGPASPKRKLEAAEEPPGEELTKRARVTEMPTQEPASKDS [I499T;K503R;I505T;L509P] | decreasing interaction |
| MAAAAVVAATVPAQSMGADGASSVHWFRKGLRLHDNPALLAAVRGARCVRCVYILDPWFAASSSVGINRWRFLLQSLEDLDTSLRKLNSRLFVVRGQPADVFPRLFKEWGVTRLTFEYDSEPFGKERDAAIMKMAKEAGVEVVTENSHTLYDLDRIIELNGQKPPLTYKRFQALISRMELPKKPAVAVSSQQMESCRAEIQENHDDTYGVPSLEELGFPTEGLGPAVWQGGETEALARLDKHLERKAWVANYERPRMNANSLLASPTGLSPYLRFGCLSCRLFYYRLWDLYKKVKRNSTPPLSLFGQLLWREFFYTAATNNPRFDRMEGNPICIQIPWDRNPEALAKWAEGKTGFPWIDAIMTQLRQEGWIHHLARHAVACFLTRGDLWVSWESGVRVFDELLLDADFSVNAGSWMWLSCSAFFQQFFHCYCPVGFGRRTDPSGDYIRRYLPKLKGFPSRYIYEPWNAPESVQKAAKCIIGVDYPRPIVNHAETGRPNTEQMRQTYQQPSRYRGLCLLASVPSCVEDLSHPVAEPGSSQAGSISNTGPRALSSGPASPKRKLEAAEEPPGEELTKRARVTEMPTQEPASKDS [S495G;L497P;I499T;R501Q;K503R;I505T;L509P] | decreasing interaction |
| MAAAAVVAATVPAQSMGADGASSVHWFRKGLRLHDNPALLAAVRGARCVRCVYILDPWFAASSSVGINRWRFLLQSLEDLDTSLRKLNSRLFVVRGQPADVFPRLFKEWGVTRLTFEYDSEPFGKERDAAIMKMAKEAGVEVVTENSHTLYDLDRIIELNGQKPPLTYKRFQALISRMELPKKPAVAVSSQQMESCRAEIQENHDDTYGVPSLEELGFPTEGLGPAVWQGGETEALARLDKHLERKAWVANYERPRMNANSLLASPTGLSPYLRFGCLSCRLFYYRLWDLYKKVKRNSTPPLSLFGQLLWREFFYTAATNNPRFDRMEGNPICIQIPWDRNPEALAKWAEGKTGFPWIDAIMTQLRQEGWIHHLARHAVACFLTRGDLWVSWESGVRVFDELLLDADFSVNAGSWMWLSCSAFFQQFFHCYCPVGFGRRTDPSGDYIRRYLPKLKGFPSRYIYEPWNAPESVQKAAKCIIGVDYPRPIVNHAETSRLNIEQMRQIYQQLSRYRGLCLLASVPSCVEDLSHPVAEPGSSQAGSISNTGPRALSSGPASPKRKLEAAEEPPGEELTKRARVTEMPTQEPASKDS [R501Q;K503R] | decreasing interaction |
| MAAAAVVAATVPAQSMGADGASSVHWFRKGLRLHDNPALLAAVRGARCVRCVYILDPWFAASSSVGINRWRFLLQSLEDLDTSLRKLNSRLFVVRGQPADVFPRLFKEWGVTRLTFEYDSEPFGKERDAAIMKMAKEAGVEVVTENSHTLYDLDRIIELNGQKPPLTYKRFQALISRMELPKKPAVAVSSQQMESCRAEIQENHDDTYGVPSLEELGFPTEGLGPAVWQGGETEALARLDKHLERKAWVANYERPRMNANSLLASPTGLSPYLRFGCLSCRLFYYRLWDLYKKVKRNSTPPLSLFGQLLWREFFYTAATNNPRFDRMEGNPICIQIPWDRNPEALAKWAEGKTGFPWIDAIMTQLRQEGWIHHLARHAVACFLTRGDLWVSWESGVRVFDELLLDADFSVNAGSWMWLSCSAFFQQFFHCYCPVGFGRRTDPSGDYIRRYLPKLKGFPSRYIYEPWNAPESVQKAAKCIIGVDYPRPIVNHAGTSRPNIERMRQTYQQPSRYRGLCLLASVPSCVEDLSHPVAEPGSSQAGSISNTGPRALSSGPASPKRKLEAAEEPPGEELTKRARVTEMPTQEPASKDS [E493G;L497P;K503R;I505T;L509P] | decreasing interaction |
| MAAAAVVAATVPAQSMGADGASSVHWFRKGLRLHDNPALLAAVRGARCVRCVYILDPWFAASSSVGINRWRFLLQSLEDLDTSLRKLNSRLFVVRGQPADVFPRLFKEWGVTRLTFEYDSEPFGKERDAAIMKMAKEAGVEVVTENSHTLYDLDRIIELNGQKPPLTYKRFQALISRMELPKKPAVAVSSQQMESCRAEIQENHDDTYGVPSLEELGFPTEGLGPAVWQGGETEALARLDKHLERKAWVANYERPRMNANSLLASPTGLSPYLRFGCLSCRLFYYRLWDLYKKVKRNSTPPLSLFGQLLWREFFYTAATNNPRFDRMEGNPICIQIPWDRNPEALAKWAEGKTGFPWIDAIMTQLRQEGWIHHLARHAVACFLTRGDLWVSWESGVRVFDELLLDADFSVNAGSWMWLSCSAFFQQFFHCYCPVGFGRRTDPSGDYIRRYLPKLKGFPSRYIYEPWNAPESVQKAAKCIIGVDYPRPIVNHAETGRPNTERMRQTYQQPSRYRGLCLLASVPSCVEDLSHPVAEPGSSQAGSISNTGPRALSSGPASPKRKLEAAEEPPGEELTKRARVTEMPTQEPASKDS [S495G;L497P;I499T;K503R;I505T;L509P] | decreasing interaction |
